Experimental findings from patent US20210275641A1 (SYNTHEKINE, published 2021) are described below.

Residue numbers refer to the chain shown, from its start. Names may count otherwise.

Assay [1] addresses T1, IL-2 receptor of the human CD4 positive T cell clone 3F8 (expresses CD25 and CD122) (human, UniProt P01589 22-272; P14784 27-551).
T1 sequence 1: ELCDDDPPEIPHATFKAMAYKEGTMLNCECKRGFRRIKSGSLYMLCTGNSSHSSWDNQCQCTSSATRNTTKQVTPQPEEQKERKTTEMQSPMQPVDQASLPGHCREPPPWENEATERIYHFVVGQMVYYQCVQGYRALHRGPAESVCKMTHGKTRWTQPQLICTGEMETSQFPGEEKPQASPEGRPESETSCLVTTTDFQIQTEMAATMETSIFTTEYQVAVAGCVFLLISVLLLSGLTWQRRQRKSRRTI
T1 sequence 2: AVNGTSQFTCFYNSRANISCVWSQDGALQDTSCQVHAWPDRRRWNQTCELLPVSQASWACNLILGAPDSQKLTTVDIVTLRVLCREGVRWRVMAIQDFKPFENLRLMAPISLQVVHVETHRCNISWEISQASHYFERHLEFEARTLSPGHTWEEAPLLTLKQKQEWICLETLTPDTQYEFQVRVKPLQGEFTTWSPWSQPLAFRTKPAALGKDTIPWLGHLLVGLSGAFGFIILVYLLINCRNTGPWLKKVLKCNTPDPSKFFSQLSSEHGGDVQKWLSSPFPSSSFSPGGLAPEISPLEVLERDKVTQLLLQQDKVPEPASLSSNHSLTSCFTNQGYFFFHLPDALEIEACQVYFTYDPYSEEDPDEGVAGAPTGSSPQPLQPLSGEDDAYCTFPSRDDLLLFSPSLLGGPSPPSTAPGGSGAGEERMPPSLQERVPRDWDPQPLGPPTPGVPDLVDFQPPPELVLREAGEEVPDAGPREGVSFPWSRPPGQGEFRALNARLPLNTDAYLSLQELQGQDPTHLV
Kind of assay: cell-based or functional assay.

Assay [2] concerns the target T2, human high affinity trimeric IL-2 receptor (CD25/CD122/CD132) (human, UniProt P01589 22-272; P14784 27-551; P31785 23-369).
T2 sequence 1: T1 sequence 1
T2 sequence 2: T1 sequence 2
T2 sequence 3: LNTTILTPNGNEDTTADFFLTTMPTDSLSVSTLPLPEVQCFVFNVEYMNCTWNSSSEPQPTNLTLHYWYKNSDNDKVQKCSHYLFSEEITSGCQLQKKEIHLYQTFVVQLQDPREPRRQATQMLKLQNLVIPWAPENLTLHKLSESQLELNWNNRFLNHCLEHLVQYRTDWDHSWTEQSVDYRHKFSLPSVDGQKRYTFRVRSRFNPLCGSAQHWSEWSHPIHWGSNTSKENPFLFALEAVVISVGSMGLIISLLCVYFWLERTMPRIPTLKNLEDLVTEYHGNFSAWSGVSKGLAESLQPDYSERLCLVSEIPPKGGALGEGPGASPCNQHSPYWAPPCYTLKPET
The assay can be described thus: cell-based or functional assay.

B1: hIL2 mutein REV (L18R, Q22E, Q126V) (ligand)
chain: APTSSSTKKTQLQLEHLRLDLEMILNGINNYKNPKLTRMLTFKFYMPKKATELKHLQCLEEELKPLEEVLNLAQSKNFHLRPRDLISNINVIVLELKGSETTFMCEYADETATIVEFLNRWITFCVSIISTLT
In the case of B1, in assay [1], the “IFNγ Production IC50 (pM), 3F8 cells” value turned out to be 21.2 pM and the “Proliferation IC50 (pM), 3F8 cells” value was determined as 20.8 pM.

B2: AEH (ligand)
cytokine: B1 chain with R18A, V126H
As to B2, in assay [2], the “pSTAT5 ratio YT CD25/YT, dilution factor 2, upper table” value turned out to be 1.3; the “pSTAT5 ratio YT CD25/YT, dilution factor 4, upper table” value is 2.6; the “pSTAT5 ratio YT CD25/YT, dilution factor 8, upper table” value turned out to be 5.7; the “pSTAT5 ratio YT CD25/YT, dilution factor 16, upper table” value was determined as 9.7. In assay [2], the “pSTAT5 ratio YT CD25/YT, dilution factor 32, upper table” value is 14.1; the “pSTAT5 ratio YT CD25/YT, dilution factor 64, upper table” value was 16.6; the “pSTAT5 ratio YT CD25/YT, dilution factor 128, upper table” value amounted to 17.9.

B3: hIL2 mutein EEK (L18E, Q22E, Q126K) (ligand)
chain: B1 chain with R18E, V126K
Consider B3, for which, in assay [1], the “IFNγ Production IC50 (pM), 3F8 cells” value is 58.7 pM and the “Proliferation IC50 (pM), 3F8 cells” value came out at 36 pM.

B4: hIL2 mutein RER (L18R, Q22E, Q126R) (ligand)
chain: B1 chain with V126R
As to B4, in assay [1], the “IFNγ Production IC50 (pM), 3F8 cells” value stood at 13.1 pM and the “Proliferation IC50 (pM), 3F8 cells” value is 13.1 pM.

B5: RYH (ligand)
cytokine: B1 chain with E22Y, V126H
Take B5: in assay [2], the “pSTAT5 ratio YT CD25/YT, dilution factor 2, lower table” value was 0.9; the “pSTAT5 ratio YT CD25/YT, dilution factor 4, lower table” value was found to be 2.2; the “pSTAT5 ratio YT CD25/YT, dilution factor 8, lower table” value is 3.4; the “pSTAT5 ratio YT CD25/YT, dilution factor 16, lower table” value was 5.5. For the same molecule, in assay [2], the “pSTAT5 ratio YT CD25/YT, dilution factor 32, lower table” value was found to be 8.7; the “pSTAT5 ratio YT CD25/YT, dilution factor 64, lower table” value amounted to 11.8; the “pSTAT5 ratio YT CD25/YT, dilution factor 128, lower table” value amounted to 10.5.

B6: hIL2 mutein VEK (L18V, Q22E, Q126K) (ligand)
chain: B1 chain with R18V, V126K
In the case of B6, in assay [1], the “IFNγ Production IC50 (pM), 3F8 cells” value was determined as 4.6 pM and the “Proliferation IC50 (pM), 3F8 cells” value came to 15.5 pM.

B7: GEH (ligand)
cytokine: B1 chain with R18G, V126H
On to B7, for which, in assay [2], the “pSTAT5 ratio YT CD25/YT, dilution factor 2, upper table” value stood at 1.5; the “pSTAT5 ratio YT CD25/YT, dilution factor 4, upper table” value is 3.5; the “pSTAT5 ratio YT CD25/YT, dilution factor 8, upper table” value came out at 7.2; the “pSTAT5 ratio YT CD25/YT, dilution factor 16, upper table” value came to 13.2. In assay [2], the “pSTAT5 ratio YT CD25/YT, dilution factor 32, upper table” value worked out at 16.2; the “pSTAT5 ratio YT CD25/YT, dilution factor 64, upper table” value amounted to 17.5; the “pSTAT5 ratio YT CD25/YT, dilution factor 128, upper table” value stood at 18.8.

B8: hIL2 mutein REF (L18R, Q22E, Q126F) (ligand)
chain: B1 chain with V126F
Take B8: in assay [1], the “IFNγ Production IC50 (pM), 3F8 cells” value stood at 38.3 pM and the “Proliferation IC50 (pM), 3F8 cells” value came to 37.6 pM.

B9: RRH (ligand)
cytokine: B1 chain with E22R, V126H
On to B9, for which, in assay [2], the “pSTAT5 ratio YT CD25/YT, dilution factor 2, lower table” value amounted to 2.3; the “pSTAT5 ratio YT CD25/YT, dilution factor 4, lower table” value amounted to 2.8; the “pSTAT5 ratio YT CD25/YT, dilution factor 8, lower table” value came to 3.8; the “pSTAT5 ratio YT CD25/YT, dilution factor 16, lower table” value is 6.5. Further, in assay [2], the “pSTAT5 ratio YT CD25/YT, dilution factor 32, lower table” value was determined as 10.3; the “pSTAT5 ratio YT CD25/YT, dilution factor 64, lower table” value came out at 14.6; the “pSTAT5 ratio YT CD25/YT, dilution factor 128, lower table” value came out at 19.

B10: RHH (ligand)
cytokine: B1 chain with E22H, V126H
B10: in assay [2], the “pSTAT5 ratio YT CD25/YT, dilution factor 2, lower table” value came out at 2; the “pSTAT5 ratio YT CD25/YT, dilution factor 4, lower table” value is 2; the “pSTAT5 ratio YT CD25/YT, dilution factor 8, lower table” value was 2.7; the “pSTAT5 ratio YT CD25/YT, dilution factor 16, lower table” value came to 3.9. In addition, in assay [2], the “pSTAT5 ratio YT CD25/YT, dilution factor 32, lower table” value was 6.3; the “pSTAT5 ratio YT CD25/YT, dilution factor 64, lower table” value is 10.6; the “pSTAT5 ratio YT CD25/YT, dilution factor 128, lower table” value came out at 16.

B11: hIL2 mutein REL (L18R, Q22E, Q126L) (ligand)
chain: B1 chain with V126L
Consider B11, for which, in assay [1], the “IFNγ Production IC50 (pM), 3F8 cells” value was 33.8 pM and the “Proliferation IC50 (pM), 3F8 cells” value came to 68.4 pM.

B12: MEH (ligand)
cytokine: B1 chain with R18M, V126H
As to B12, in assay [2], the “pSTAT5 ratio YT CD25/YT, dilution factor 2, upper table” value was found to be 0.9; the “pSTAT5 ratio YT CD25/YT, dilution factor 4, upper table” value is 1.2; the “pSTAT5 ratio YT CD25/YT, dilution factor 8, upper table” value is 1.2; the “pSTAT5 ratio YT CD25/YT, dilution factor 16, upper table” value was 1.4. Moreover, in assay [2], the “pSTAT5 ratio YT CD25/YT, dilution factor 32, upper table” value worked out at 1.8; the “pSTAT5 ratio YT CD25/YT, dilution factor 64, upper table” value worked out at 2.7; the “pSTAT5 ratio YT CD25/YT, dilution factor 128, upper table” value came out at 4.5.

B13: hIL2 mutein REY (L18R, Q22E, Q126Y) (ligand)
chain: B1 chain with V126Y
As to B13, in assay [1], the “IFNγ Production IC50 (pM), 3F8 cells” value stood at 22.1 pM and the “Proliferation IC50 (pM), 3F8 cells” value stood at 19.3 pM.

B14: RNH (ligand)
cytokine: B1 chain with E22N, V126H
Take B14: in assay [2], the “pSTAT5 ratio YT CD25/YT, dilution factor 2, lower table” value amounted to 2.1; the “pSTAT5 ratio YT CD25/YT, dilution factor 4, lower table” value was found to be 2; the “pSTAT5 ratio YT CD25/YT, dilution factor 8, lower table” value turned out to be 2.6; the “pSTAT5 ratio YT CD25/YT, dilution factor 16, lower table” value came to 3.6. In assay [2], the “pSTAT5 ratio YT CD25/YT, dilution factor 32, lower table” value worked out at 5.2; the “pSTAT5 ratio YT CD25/YT, dilution factor 64, lower table” value worked out at 7.7; the “pSTAT5 ratio YT CD25/YT, dilution factor 128, lower table” value is 13.

B15: hIL2 mutein AEK (L18A, Q22E, Q126K) (ligand)
chain: B1 chain with R18A, V126K
Regarding B15, in assay [1], the “IFNγ Production IC50 (pM), 3F8 cells” value came to 19 pM and the “Proliferation IC50 (pM), 3F8 cells” value came out at 13.7 pM.

B16: RDH (ligand)
cytokine: B1 chain with E22D, V126H
In the case of B16, in assay [2], the “pSTAT5 ratio YT CD25/YT, dilution factor 2, lower table” value amounted to 1.7; the “pSTAT5 ratio YT CD25/YT, dilution factor 4, lower table” value is 1.8; the “pSTAT5 ratio YT CD25/YT, dilution factor 8, lower table” value is 2.1; the “pSTAT5 ratio YT CD25/YT, dilution factor 16, lower table” value turned out to be 2.2. For the same molecule, in assay [2], the “pSTAT5 ratio YT CD25/YT, dilution factor 32, lower table” value amounted to 2.9; the “pSTAT5 ratio YT CD25/YT, dilution factor 64, lower table” value was 4.4; the “pSTAT5 ratio YT CD25/YT, dilution factor 128, lower table” value turned out to be 7.

B17: RTH (ligand)
cytokine: B1 chain with E22T, V126H
With B17, in assay [2], the “pSTAT5 ratio YT CD25/YT, dilution factor 2, lower table” value came to 2.3; the “pSTAT5 ratio YT CD25/YT, dilution factor 4, lower table” value is 1.9; the “pSTAT5 ratio YT CD25/YT, dilution factor 8, lower table” value worked out at 2.6; the “pSTAT5 ratio YT CD25/YT, dilution factor 16, lower table” value is 3.6. Besides, in assay [2], the “pSTAT5 ratio YT CD25/YT, dilution factor 32, lower table” value amounted to 5.4; the “pSTAT5 ratio YT CD25/YT, dilution factor 64, lower table” value was determined as 9.1; the “pSTAT5 ratio YT CD25/YT, dilution factor 128, lower table” value was found to be 14.3.

B18: hIL2 mutein REN (L18R, Q22E, Q126N) (ligand)
chain: B1 chain with V126N
Regarding B18, in assay [1], the “IFNγ Production IC50 (pM), 3F8 cells” value stood at 15.7 pM and the “Proliferation IC50 (pM), 3F8 cells” value was found to be 13.7 pM.
